Biological target: recombinant 50 kD C-terminal BoNT/A domain (HC50A) (Clostridium botulinum, UniProt P0DPI0 871-1296)
Sequence (P0DPI0 871-1296 limits assumed): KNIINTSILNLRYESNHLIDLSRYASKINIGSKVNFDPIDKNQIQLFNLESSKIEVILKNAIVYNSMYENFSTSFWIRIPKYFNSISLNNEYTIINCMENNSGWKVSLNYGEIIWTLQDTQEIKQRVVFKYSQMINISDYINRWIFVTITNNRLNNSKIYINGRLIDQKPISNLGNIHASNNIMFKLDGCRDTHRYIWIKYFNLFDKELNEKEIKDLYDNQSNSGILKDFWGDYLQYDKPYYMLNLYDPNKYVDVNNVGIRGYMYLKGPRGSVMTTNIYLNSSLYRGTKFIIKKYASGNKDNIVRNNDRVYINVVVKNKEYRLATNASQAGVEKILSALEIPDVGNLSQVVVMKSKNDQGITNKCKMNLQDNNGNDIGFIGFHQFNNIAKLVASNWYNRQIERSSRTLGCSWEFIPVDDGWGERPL

B1: 6A antibody (human monoclonal IgG secreted by hybridoma 6A, ATCC accession no. PTA-8870) (antibody, V domains shown)
VH: EVQLVESGGGVVKPGGSLRLSCTAFGFTFEDFGMHWVRQAPGKGLEWVSLVSGEGGSKYYADSVKGRFTISRDNKKHSLYLHMNSLKTEDTALYYCAKDVWTYHYDSSGYQYYYGMDVWGQGTTVTVSS
VL: QEPAVSVALGQTVRITCQGDSLRSYSASWYQQRPGQAPLFVMYGKDKRPSGIPDRFSGSASGNTASLTITGAQAEDEADYYCNCRDSSNQYWIFGGGTKVTVL
B1 was tested, and the Kd was 6.9 pM and the kon was 440000 M⁻¹ s⁻¹.

Reference: patent US20110002937A1 (THOMAS JEFFERSON UNIVERSITY, published 2011)
